In publication PMC8202348 (2021) one finds Kd data, which are given here for three molecules.

Where a chain is given by its changes, count along the chain named. Names and notes keep the numbering of the source.

The target of series [1] is GL3^552–637, N6His- and GST-tagged recombinant protein (Arabidopsis) (UniProt Q9FN69). Nature of the series: AlphaScreen or HTRF; ALPHA competition binding, apparent Kd; 100 nM N6His-tagged and 100 nM GST-tagged copies with untagged competitor (R^ACT 0–8 μM, GL3^ACT 0–10 μM); room temperature 2 h; one-site fit.
Series [2] deals with R^525–610, N6His- and GST-tagged recombinant protein (maize). The series is described as follows: AlphaScreen or HTRF; ALPHA saturation binding, apparent Kd; N6His-tagged and GST-tagged copies, one at 100 nM (R^ACT) or 500 nM (GL3^ACT), the other 0–4 μM (R^ACT) or 0–5 μM (GL3^ACT); Nickel Chelate donor and anti-GST acceptor beads; room temperature 2 h; one-site fit.
Series [3] deals with the molecule itself. Nature of the series: biological repeat 2.
In series [4] the target is R^525–610 V568S, N6His- and GST-tagged recombinant protein (maize). The series is described as follows: AlphaScreen or HTRF; ALPHA saturation binding, apparent Kd; N6His-tagged and GST-tagged copies, one at 100 nM (R^ACT) or 500 nM (GL3^ACT), the other 0–4 μM (R^ACT) or 0–5 μM (GL3^ACT); Nickel Chelate donor and anti-GST acceptor beads; room temperature 2 h; one-site fit.

The target in series [5] is T1, R^525–610 L569H, N6His- and GST-tagged recombinant protein (maize).
T1 chain: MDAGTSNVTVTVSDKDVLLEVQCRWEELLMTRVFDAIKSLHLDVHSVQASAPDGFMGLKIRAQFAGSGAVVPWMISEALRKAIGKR
Nature of the series: biological repeat 1.

Series [6] deals with T2, R^525–610 A573S, N6His- and GST-tagged recombinant protein (maize).
T2 chain: T1 chain with H45L, A49S
Nature of the series: biological repeat 1.

Series [7] deals with the molecule itself. The series is described as follows: biological repeat 1.
Series [8] deals with T1, R^525–610 L569H, N6His- and GST-tagged …. The series is described as follows: biological repeat 2.
Series [9] deals with T2, R^525–610 A573S, N6His- and GST-tagged …. The series is described as follows: biological repeat 2.

For “untagged GL3^552–637 (from UniProt Q9FN69 552-637) (domain or fragment)”, the Kd in series [1] came to 1280 nM.

B1: R^525–610, N6His- and GST-tagged recombinant protein (domain or fragment)
chain: T1 chain with H45L
Turning to B1, the Kd in series [2] turned out to be 100 nM; in [3], 90 nM.

B2: R^525–610 V568S, N6His- and GST-tagged recombinant protein (domain or fragment)
chain: T1 chain with V44S, H45L
As to B2, the Kd came to 1720 nM in series [4]; 340 nM in series [5]; 290 nM in [6]; 1850 nM in series [7]; 310 nM in series [8]; 250 nM in series [9].
